Here are results for 1 molecule from patent US20250002557A1.

The target in the assay is T1, PDGF-CC, Q9NRA1.
T1 chain: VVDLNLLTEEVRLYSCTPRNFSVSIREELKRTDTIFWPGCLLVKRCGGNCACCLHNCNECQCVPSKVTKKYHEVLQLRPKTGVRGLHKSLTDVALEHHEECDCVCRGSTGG
Briefly: SPR, PDGF coupled to CM5 chip, VEGFR2-Fc in flow. As to conditions: remark: other sources report otherwise. On the technique in general: SPR reads the build-up and loss of mass on a sensor chip optically.

The term Kd denotes the equilibrium constant for the complex coming apart. Low values mean a tighter complex, high ones a looser complex.

B1: VEGFR2-Fc (Met1-Glu764), P35968 20-764 (Fc fusion, not shown: a dimerising Fc or GST)
chain: ASVGLPSVSLDLPRLSIQKDILTIKANTTLQITCRGQRDLDWLWPNNQSGSEQRVEVTECSDGLFCKTLTIPKVIGNDTGAYKCFYRETDLASVIYVYVQDYRSPFIASVSDQHGVVYITENKNKTVVIPCLGSISNLNVSLCARYPEKRFVPDGNRISWDSKKGFTIPSYMISYAGMVFCEAKINDESYQSIMYIVVVVGYRIYDVVLSPSHGIELSVGEKLVLNCTARTELNVGIDFNWEYPSSKHQHKKLVNRDLKTQSGSEMKKFLSTLTIDGVTRSDQGLYTCAASSGLMTKKNSTFVRVHEKPFVAFGSGMESLVEATVGERVRIPAKYLGYPPPEIKWYKNGIPLESNHTIKAGHVLTIMEVSERDTGNYTVILTNPISKEKQSHVVSLVVYVPPQIGEKSLISPVDSYQYGTTQTLTCTVYAIPPPHHIHWYWQLEEECANEPSQAVSVTNPYPCEEWRSVEDFQGGNKIEVNKNQFALIEGKNKTVSTLVIQAANVSALYKCEAVNKVGRGERVISFHVTRGPEITLQPDMQPTEQESVSLWCTADRSTFENLTWYKLGPQPLPIHVGELPTPVCKNLDTLWKLNATMFSNSTNDILIMELKNASLQDQGDYVCLAQDRKTKKRHCVVRQLTVLERVAPTITGNLENQTTSIGESIEVSCTASGNPPPQIMWFKDNETLVEDSGIVLKDGNRNLTIRRVRKEDEGLYTCQACSVLGCAKVEAFFIIEGAQEKTNLE
The molecule B1 came in with a Kd of 73.6 nM. This lies in the double-digit nanomolar range.
